{"source": "paper PMC11551741", "about": "(Nucleic Acids Research, 2024)", "key": {"[1]": {"biological_target": "RAD18 peptide 437-452 (Homo sapiens) (UniProt Q9NS91)", "assay": "ITC", "details": "cited from earlier work"}, "[2]": {"biological_target": "unmodified nucleosome core particle (H2A, H2B, H3.1, H4 and 147 bp Widom 601 DNA) (human) (UniProt P0C0S8)", "assay": "native gel or EMSA; 10 nM nucleosome core particles with rising SLF1^ARD or SLF1^ARD_4A, room temperature, 20 mins; Diamond DNA stain"}, "SLF1 tBRCT, 6-208": {"biological_target": "SLF1 tBRCT, 6-208 (UniProt Q9BQI6)", "sequence (Q9BQI6 whole entry, looked up, tested part not stated)": "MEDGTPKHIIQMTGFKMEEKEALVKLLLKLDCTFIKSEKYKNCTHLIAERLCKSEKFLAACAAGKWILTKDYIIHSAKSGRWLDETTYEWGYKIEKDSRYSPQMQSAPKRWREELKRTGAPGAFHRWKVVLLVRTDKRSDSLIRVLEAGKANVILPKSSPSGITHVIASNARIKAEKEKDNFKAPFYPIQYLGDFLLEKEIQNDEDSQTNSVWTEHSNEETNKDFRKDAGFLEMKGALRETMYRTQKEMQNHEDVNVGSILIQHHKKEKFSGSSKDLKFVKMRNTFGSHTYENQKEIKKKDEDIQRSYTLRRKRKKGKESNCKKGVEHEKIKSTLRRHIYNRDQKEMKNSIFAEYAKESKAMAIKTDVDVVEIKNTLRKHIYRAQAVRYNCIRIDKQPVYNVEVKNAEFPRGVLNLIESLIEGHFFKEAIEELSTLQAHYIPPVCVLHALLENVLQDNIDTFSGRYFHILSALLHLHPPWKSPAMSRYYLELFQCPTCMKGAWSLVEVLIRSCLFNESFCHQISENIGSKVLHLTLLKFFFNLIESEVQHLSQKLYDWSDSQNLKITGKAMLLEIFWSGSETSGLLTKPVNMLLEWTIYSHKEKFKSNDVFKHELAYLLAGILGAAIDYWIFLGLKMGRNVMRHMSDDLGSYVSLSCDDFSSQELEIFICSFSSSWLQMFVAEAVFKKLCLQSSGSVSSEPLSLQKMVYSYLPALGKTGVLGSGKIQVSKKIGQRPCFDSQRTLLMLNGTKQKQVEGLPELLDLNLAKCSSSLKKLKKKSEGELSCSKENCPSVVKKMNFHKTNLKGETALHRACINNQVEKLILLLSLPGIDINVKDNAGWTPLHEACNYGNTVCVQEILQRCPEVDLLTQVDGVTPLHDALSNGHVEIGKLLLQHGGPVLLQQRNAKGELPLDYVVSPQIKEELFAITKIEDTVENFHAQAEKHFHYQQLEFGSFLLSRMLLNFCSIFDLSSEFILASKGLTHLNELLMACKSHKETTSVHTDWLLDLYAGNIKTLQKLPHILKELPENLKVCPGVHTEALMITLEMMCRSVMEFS", "assay": "thermal melt (SYPRO Orange) of SLF1tBRCT"}, "SLF1 ARD": {"biological_target": "T1, SLF1 ARD (Homo sapiens, UniProt Q9BQI6 802-934)", "T1 sequence": "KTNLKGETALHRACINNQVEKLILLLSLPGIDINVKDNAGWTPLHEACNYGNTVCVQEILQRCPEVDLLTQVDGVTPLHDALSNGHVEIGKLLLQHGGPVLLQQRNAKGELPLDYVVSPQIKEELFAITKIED", "assay": "EMSA; no shift; DNA EMSA: 40 mM Tris pH 7.5, 100 mM KCl, 0.2 mM DTT, 10% glycerol, 20 ug/ml BSA, 10 nM DNA, 4 C 30 min; NCP EMSA: 10 nM NCP, room temperature 20 min; FP: 20 mM", "details": "protein: recombinant; tags: none (His-tag cleaved by TEV); label: 5' 6-FAM on strand 1; blunt"}, "BRCA1 tBRCT": {"biological_target": "BRCA1 tBRCT (UniProt P38398 1646-1859)", "sequence (P38398 1646-1859)": "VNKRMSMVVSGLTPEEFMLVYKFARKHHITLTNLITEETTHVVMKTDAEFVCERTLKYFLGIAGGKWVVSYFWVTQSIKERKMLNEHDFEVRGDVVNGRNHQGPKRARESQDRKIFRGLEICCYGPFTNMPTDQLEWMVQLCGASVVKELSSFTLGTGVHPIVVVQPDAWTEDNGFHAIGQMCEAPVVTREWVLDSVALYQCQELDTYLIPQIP", "assay": "EMSA; no interaction observed; DNA EMSA: 40 mM Tris pH 7.5, 100 mM KCl, 0.2 mM DTT, 10% glycerol, 20 ug/ml BSA, 10 nM DNA, 4 C 30 min; NCP EMSA: 10 nM NCP, room temperature 20 min; FP: 20 mM", "details": "protein: recombinant; tags: N-terminal non-cleavable His-tag; label: 5' 6-FAM on strand 1; blunt"}, "SLF1 tBRCT [3]": {"biological_target": "T2, SLF1 tBRCT (Homo sapiens, UniProt Q9BQI6 6-208)", "T2 sequence": "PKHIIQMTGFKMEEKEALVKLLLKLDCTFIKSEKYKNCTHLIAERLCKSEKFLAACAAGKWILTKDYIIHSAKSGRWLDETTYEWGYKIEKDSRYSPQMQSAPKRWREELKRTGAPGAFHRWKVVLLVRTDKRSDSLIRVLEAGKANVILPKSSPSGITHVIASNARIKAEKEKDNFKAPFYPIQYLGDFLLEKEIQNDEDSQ", "assay": "fluorescence polarization; 20 mM Tris pH 8.0, 150 mM NaCl, 5% glycerol, room temperature; DNA EMSA: 40 mM Tris pH 7.5, 100 mM KCl, 0.2 mM DTT, 10% glycerol, 20 ug/ml BSA, 10 nM DNA, 4 C 30 min; NCP EMSA: 10 nM NCP, room temperature 20 min; FP: 20 mM", "details": "protein: recombinant; tags: none (His-tag cleaved by TEV); label: 5' 6-FAM on strand 1; blunt"}, "SLF1 tBRCT T13A": {"biological_target": "T3, SLF1 tBRCT T13A (Homo sapiens, UniProt Q9BQI6 6-208, T13A)", "T3 sequence": "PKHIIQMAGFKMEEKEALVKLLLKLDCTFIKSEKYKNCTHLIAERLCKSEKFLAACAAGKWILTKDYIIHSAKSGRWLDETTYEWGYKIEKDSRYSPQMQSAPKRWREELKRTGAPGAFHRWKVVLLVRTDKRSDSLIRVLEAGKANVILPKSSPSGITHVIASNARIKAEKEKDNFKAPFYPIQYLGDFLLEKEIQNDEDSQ", "assay": "thermal melt; 30 uM DNA, 10 uM protein; DNA EMSA: 40 mM Tris pH 7.5, 100 mM KCl, 0.2 mM DTT, 10% glycerol, 20 ug/ml BSA, 10 nM DNA, 4 C 30 min; NCP EMSA: 10 nM NCP, room temperature 20 min; FP: 20 mM", "details": "protein: recombinant; tags: none (His-tag cleaved by TEV); blunt"}, "SLF1 tBRCT K56A": {"biological_target": "T4, SLF1 tBRCT K56A (Homo sapiens, UniProt Q9BQI6 6-208, K56A)", "T4 sequence": "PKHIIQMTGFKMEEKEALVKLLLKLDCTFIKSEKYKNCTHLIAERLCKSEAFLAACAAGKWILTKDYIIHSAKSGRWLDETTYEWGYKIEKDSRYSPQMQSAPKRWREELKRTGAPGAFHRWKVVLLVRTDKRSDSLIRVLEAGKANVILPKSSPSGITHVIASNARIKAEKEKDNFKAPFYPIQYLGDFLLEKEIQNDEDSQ", "assay": "thermal melt; 30 uM DNA, 10 uM protein; DNA EMSA: 40 mM Tris pH 7.5, 100 mM KCl, 0.2 mM DTT, 10% glycerol, 20 ug/ml BSA, 10 nM DNA, 4 C 30 min; NCP EMSA: 10 nM NCP, room temperature 20 min; FP: 20 mM", "details": "protein: recombinant; tags: none (His-tag cleaved by TEV); blunt"}, "SLF1 tBRCT [4]": {"biological_target": "T2, SLF1 tBRCT", "assay": "thermal melt; 30 uM DNA, 10 uM protein; DNA EMSA: 40 mM Tris pH 7.5, 100 mM KCl, 0.2 mM DTT, 10% glycerol, 20 ug/ml BSA, 10 nM DNA, 4 C 30 min; NCP EMSA: 10 nM NCP, room temperature 20 min; FP: 20 mM", "details": "protein: recombinant; tags: none (His-tag cleaved by TEV); blunt"}, "[5]": {"biological_target": "T5, SLF1^tBRCT (tandem BRCT domain of SLF1, residues 6-208) (human, UniProt Q9BQI6 6-208)", "T5 construct": "SLF1 (SMC5-SMC6 complex localization factor 1), human, tandem BRCT domain, residues 6-208; pHAT4 construct; also called wild-type SLF1^tBRCT; not shown: His-tag, N-terminal, cleaved", "T5 sequence (looked up)": "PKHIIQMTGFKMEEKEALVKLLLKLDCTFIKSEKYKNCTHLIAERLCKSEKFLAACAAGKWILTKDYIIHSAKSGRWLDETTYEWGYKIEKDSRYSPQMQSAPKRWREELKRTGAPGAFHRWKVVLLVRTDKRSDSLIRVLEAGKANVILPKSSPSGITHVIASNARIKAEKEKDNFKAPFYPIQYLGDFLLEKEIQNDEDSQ", "assay": "thermal melt (SYPRO Orange); 10 μM SLF1^tBRCT proteins with 200 μM RAD18 peptides; 25-95°C; Tm of SLF1^tBRCT", "details": "both partners purified"}}, "note": "Non-standard residues stand in square brackets, D forms with d. pS = N[C@@H](COP(=O)(O)O)C(=O)O"}
{"molecule": "SLF1 tBRCT (from UniProt Q9BQI6)", "values": [{"measurement": "Kd", "setting": "[1]", "result": 12, "unit": "nM"}]}
{"molecule": "SLF1^ARD (ankyrin repeat domain of SLF1, residues 802-934), His-tag cleaved (from UniProt Q9BQI6 802-934) (domain or fragment)", "values": [{"measurement": "affinity", "setting": "[2]", "result": "1 to 5", "unit": "µM"}]}
{"molecule": "RAD18 441-446 (from UniProt Q9NS91) pS442/pS444 peptide", "values": [{"measurement": "other: ΔTm vs SLF1tBRCT alone", "setting": "SLF1 tBRCT, 6-208; reference: pS442 peptide, sites S444", "result": "stronger; reference 0.8"}, {"measurement": "other: ΔTm vs SLF1tBRCT alone", "setting": "SLF1 tBRCT, 6-208; reference: pS444 peptide, sites S442", "result": "stronger; reference 0.4"}, {"measurement": "other: ΔTm vs SLF1tBRCT alone", "setting": "SLF1 tBRCT, 6-208; reference: unphosphorylated peptide SSSSDI, sites S442,S444", "result": 3.7, "unit": "°C"}]}
{"molecule": "50 bp DNA, 6-FAM (dsDNA) DNA 1: TAAATGCCAATGCTGCTGATACGTACTCGGACTGATTCGGAACTGTAACG DNA 2: CGTTACAGTTCCGAATCAGTCCGAGTACGTATCAGCAGCATTGGCATTTA", "values": [{"measurement": "binding result", "setting": "SLF1 ARD", "result": "no binding"}, {"measurement": "binding result", "setting": "BRCA1 tBRCT", "result": "no binding"}, {"measurement": "Kd", "setting": "SLF1 tBRCT [3]", "result": 430, "unit": "nM"}]}
{"molecule": "50 bp DNA, unlabelled (dsDNA) DNA 1: TAAATGCCAATGCTGCTGATACGTACTCGGACTGATTCGGAACTGTAACG DNA 2: CGTTACAGTTCCGAATCAGTCCGAGTACGTATCAGCAGCATTGGCATTTA", "values": [{"measurement": "binding signal", "setting": "SLF1 tBRCT T13A", "result": "6.9 C (delta Tm)"}, {"measurement": "binding signal", "setting": "SLF1 tBRCT K56A", "result": "6.4 C (delta Tm)"}, {"measurement": "binding signal", "setting": "SLF1 tBRCT [4]", "result": "7.1 C (delta Tm)"}]}
{"molecule": "Ac-S[pS]S[pS]DI-NH2 (SMILES CC[C@H](C)[C@H](NC(=O)[C@H](CC(=O)O)NC(=O)[C@H](COP(=O)(O)O)NC(=O)[C@H](CO)NC(=O)[C@H](COP(=O)(O)O)NC(=O)[C@H](CO)NC(C)=O)C(N)=O, RAD18, human, residues S441 to I446; also called double phosphorylated RAD18 peptide; double-phosphorylated hexapeptide; source: synthetic peptide (Biomatik))", "note": "[RAD18(442p,444p)^peptide (S(pS)S(pS)DI)]", "values": [{"measurement": "ΔTm", "setting": "[5]", "result": 3.7, "unit": "°C"}]}
